Patent US20260242478A1 (published 2026)

B1: Phage-3893 (peptide)
peptide: LVPRCLPEWMCTGF
notes: tested as crude clonal phage supernatant
B2: Phage-3892 (peptide)
peptide: DYWYCQPAWMCTGL
notes: as for B1
B3: Phage-3936 (Peptide-180 library clone) (peptide)
peptide: WVRLCQPAWMCTGL
notes: Tested as clonal phage supernatant; not shown: fused to the pIII filament protein of the bacteriophage
B4: Phage-3932 (Peptide-180 library clone) (peptide)
peptide: LNVECVPQWMCDGF
notes: as for B3
B5: Phage-3926 (Peptide-180 library clone) (peptide)
peptide: VERFCEPAWMCIGL
notes: as for B3
B6: Phage-3931 (Peptide-180 library clone) (peptide)
peptide: PTIMCIPVWMCQAF
notes: as for B3
B7: Phage-3894 (peptide)
peptide: DLQMCLPKWMCVGF
notes: as for B1
B8: Phage-3895 (peptide)
peptide: EWIMCTPPWMCHGF
notes: as for B1

How the values were obtained:
PSMA Fab (006 PSMA Fab) [1] = biological target: T1, PSMA Fab (006 PSMA Fab); test: clonal phage supernatant on biotinylated PSMA Fab captured on neutravidin plate, anti-M13-HRP detection;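 note: before phage were added, wells received PSMA antigen in blocking buffer or blocking buffer alone, with no wash in between, followed by a short phage incubation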
T1 construct: also called Anti-PSMA Fab
Protocol: (§1) Clonal phage were harvested as crude supernatants and screened via standard ELISAs. […] Prior to the addition of clonal phage. wells were incubated with blocking buffer and PSMA antigen or blocking buffer alone. Without washing or aspirating, clonal phage supernatants were then added to the wells and incubated for a short time. Wells were then washed followed by detection of bound phage using a horse radish conjugated anti-M13 antibody.

PSMA Fab (006 PSMA Fab) [2] = biological target: T1, PSMA Fab (006 PSMA Fab); test: phage ELISA on captured PSMA Fab pre-incubated with the competitor PSMA antigen, anti-M13-HRP detection
Protocol: as §1

006 PSMA Fab [3] = biological target: T2, 006 PSMA Fab (biotinylated (site not stated)); test: clonal phage ELISA; biotinylated PSMA Fab on neutravidin plate, blocking buffer alone, anti-M13-HRP detection;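 note: crude clonal phage supernatants added without washing to wells preincubated with PSMA antigen or with blocking buffer alone, briefly incubated, then washed before bound phage detection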
T2 construct: also called Anti-PSMA Fab

006 PSMA Fab [4] = biological target: T2, 006 PSMA Fab; test: clonal phage ELISA; biotinylated PSMA Fab on neutravidin plate pre-incubated with PSMA antigen as competitor, anti-M13-HRP detection
Protocol: as §1

006 PSMA Fab [5] = biological target: T3, 006 PSMA Fab; test: clonal phage ELISA; biotinylated PSMA Fab captured on neutravidin plate, blocking buffer alone; bound phage detected with anti-M13 HRP
T3 construct: In the phage ELISA the PSMA Fab was biotinylated and captured on neutravidin coated plates; also called Anti-PSMA Fab
Protocol: as §1

006 PSMA Fab [6] = biological target: T3, 006 PSMA Fab; test: clonal phage ELISA; biotinylated PSMA Fab captured on neutravidin plate, wells pre-incubated with PSMA antigen as competitor; bound phage detected with anti-M13 HRP
Protocol: as §1

PSMA Fab (006 PSMA Fab) [7] = biological target: T4, PSMA Fab (006 PSMA Fab); test: phage binding ELISA; biotinylated PSMA Fab on neutravidin plate, clonal phage supernatant, anti-M13 HRP detection;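 note: wells were preincubated with blocking buffer either containing PSMA antigen or without it before crude phage supernatant was added, briefly incubated, then washed prior to detection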
T4 construct: also called Anti-PSMA Fab; anti-PSMA Fab
Protocol: as §1

Binder	Phage binding ELISA signal, Anti-PSMA Fab (PSMA Fab (006 PSMA Fab) [1])	phage binding ELISA signal, Anti-PSMA Fab in the presence of PSMA (PSMA Fab (006 PSMA Fab) [2])	Phage binding ELISA signal, Anti-PSMA Fab (006 PSMA Fab [5])	Phage binding ELISA signal, Anti-PSMA Fab with PSMA antigen (006 PSMA Fab [6])	also measured
IEAQCRPVWMCHGF [Phage-3923]	0.978	0.0779	–	–	–
YQMLCVPEWMCSGL [Phage-3915]	1.02	0.0874	–	–	–
B1	–	–	–	–	Phage binding ELISA signal, Anti-PSMA Fab (006 PSMA Fab [3]): 1.09; Phage binding ELISA signal, Anti-PSMA Fab in the presence of PSMA antigen (006 PSMA Fab [4]): 0.0848
B2	–	–	–	–	Phage binding ELISA signal, Anti-PSMA Fab (006 PSMA Fab [3]): 1.1; Phage binding ELISA signal, Anti-PSMA Fab in the presence of PSMA antigen (006 PSMA Fab [4]): 0.0585
QNFHCVPQWMCDWL [Phage-3913]	1.02	0.0986	–	–	–
TQVKCIPLWMCDGF [Phage-3947]	–	–	0.885	0.0544	–
STTLCRPAWMCTGM [Phage-3916]	1.02	0.0655	–	–	–
AQVLCVPNWMCTGF [Phage-3920]	0.985	0.0618	–	–	–
B3	–	–	–	–	Phage binding ELISA signal, Anti-PSMA Fab (PSMA Fab (006 PSMA Fab) [7]): 0.926
AVHMCAPSWMCSGF [Phage-3952]	–	–	0.87	0.0825	–
B4	–	–	–	–	Phage binding ELISA signal, Anti-PSMA Fab (PSMA Fab (006 PSMA Fab) [7]): 0.965
YARECIPQWMCGGF [Phage-3939]	–	–	0.918	0.0765	–
LTVYCTPEWMCSGW [Phage-3948]	–	–	0.882	0.0749	–
LVRMCQPPWMCDGF [Phage-3941]	–	–	0.912	0.0699	–
DSLVCQPRWMCVGF [Phage-3945]	–	–	0.895	0.063	–
B5	–	–	–	–	Phage binding ELISA signal, Anti-PSMA Fab (PSMA Fab (006 PSMA Fab) [7]): 0.972
B6	–	–	–	–	Phage binding ELISA signal, Anti-PSMA Fab (PSMA Fab (006 PSMA Fab) [7]): 0.966
EFRECRPPWMCQGL [Phage-3944]	–	–	0.899	0.0789	–
AQKLCEPMWMCVGF [Phage-3918]	1	0.064	–	–	–
GAYTCVPAWMCQGF [Phage-3922]	0.979	0.0665	–	–	–
B7	–	–	–	–	Phage binding ELISA signal, Anti-PSMA Fab (006 PSMA Fab [3]): 1.09; Phage binding ELISA signal, Anti-PSMA Fab in the presence of PSMA antigen (006 PSMA Fab [4]): 0.0639
DRVLCTPTWMCEGF [Phage-3917]	1.01	0.0642	–	–	–
B8	–	–	–	–	Phage binding ELISA signal, Anti-PSMA Fab (006 PSMA Fab [3]): 1.09; Phage binding ELISA signal, Anti-PSMA Fab in the presence of PSMA antigen (006 PSMA Fab [4]): 0.0638
STMSCVPSWMCLGF [Phage-3946]	–	–	0.885	0.0614	–
